Experimental data reported in article PMC2814163.
Where two headings read alike, the source gives them in different places.

Experiments:
[1] = target: plasminogen (Homo sapiens) (UniProt P00747); conditions: cited from earlier work
[2] = target: Dom1-3His (extracytoplasmic domains 1-3 of the bovine CI-MPR, residues 1-432, C-terminal His6) (bovine) (UniProt P08169); test: SPR
[3] = target: Dom1-2His (domains 1-2 of the bovine CI-MPR, residues 1-281, C-terminal His6) (bovine) (UniProt P08169); test: SPR
[4] = target: Dom1-3His (extracytoplasmic domains 1-3 of the bovine CI-MPR, residues 1-432, C-terminal His6) (bovine) (UniProt P08169); test: SPR; remark: listed apart in the source
Dom1-3HisK125A (bovine) = Dom1-3HisK125A (bovine) (UniProt P08169); test: SPR
Dom1-3HisK132A (bovine) = Dom1-3HisK132A (bovine) (UniProt P08169); test: SPR
Dom1-3HisK215A (bovine) = Dom1-3HisK215A (bovine) (UniProt P08169); test: SPR
Dom1-3HisK23A (bovine) = Dom1-3HisK23A (bovine) (UniProt P08169); test: SPR
Dom1-3HisK53A (bovine) = Dom1-3HisK53A (bovine) (UniProt P08169); test: SPR
Dom1-3HisK82A (bovine) = Dom1-3HisK82A (bovine) (UniProt P08169); test: SPR
Dom1-3HisK98A (bovine) = Dom1-3HisK98A (bovine) (UniProt P08169); test: SPR
Dom1-3HisR118A (bovine) = Dom1-3HisR118A (bovine) (UniProt P08169); test: SPR
[5] = target: Dom1His (domain 1 of the bovine CI-MPR, residues 1-123, C-terminal His6) (bovine) (UniProt P08169); test: SPR
[6] = target: soluble form of the cation-independent mannose 6-phosphate receptor isolated from fetal bovine serum (bovine) (UniProt P08169); test: SPR
Sequence of soluble form of the cation-independent mannose 6-phosphate receptor isolated from fetal bovine serum (bovine) (P08169 45-2313): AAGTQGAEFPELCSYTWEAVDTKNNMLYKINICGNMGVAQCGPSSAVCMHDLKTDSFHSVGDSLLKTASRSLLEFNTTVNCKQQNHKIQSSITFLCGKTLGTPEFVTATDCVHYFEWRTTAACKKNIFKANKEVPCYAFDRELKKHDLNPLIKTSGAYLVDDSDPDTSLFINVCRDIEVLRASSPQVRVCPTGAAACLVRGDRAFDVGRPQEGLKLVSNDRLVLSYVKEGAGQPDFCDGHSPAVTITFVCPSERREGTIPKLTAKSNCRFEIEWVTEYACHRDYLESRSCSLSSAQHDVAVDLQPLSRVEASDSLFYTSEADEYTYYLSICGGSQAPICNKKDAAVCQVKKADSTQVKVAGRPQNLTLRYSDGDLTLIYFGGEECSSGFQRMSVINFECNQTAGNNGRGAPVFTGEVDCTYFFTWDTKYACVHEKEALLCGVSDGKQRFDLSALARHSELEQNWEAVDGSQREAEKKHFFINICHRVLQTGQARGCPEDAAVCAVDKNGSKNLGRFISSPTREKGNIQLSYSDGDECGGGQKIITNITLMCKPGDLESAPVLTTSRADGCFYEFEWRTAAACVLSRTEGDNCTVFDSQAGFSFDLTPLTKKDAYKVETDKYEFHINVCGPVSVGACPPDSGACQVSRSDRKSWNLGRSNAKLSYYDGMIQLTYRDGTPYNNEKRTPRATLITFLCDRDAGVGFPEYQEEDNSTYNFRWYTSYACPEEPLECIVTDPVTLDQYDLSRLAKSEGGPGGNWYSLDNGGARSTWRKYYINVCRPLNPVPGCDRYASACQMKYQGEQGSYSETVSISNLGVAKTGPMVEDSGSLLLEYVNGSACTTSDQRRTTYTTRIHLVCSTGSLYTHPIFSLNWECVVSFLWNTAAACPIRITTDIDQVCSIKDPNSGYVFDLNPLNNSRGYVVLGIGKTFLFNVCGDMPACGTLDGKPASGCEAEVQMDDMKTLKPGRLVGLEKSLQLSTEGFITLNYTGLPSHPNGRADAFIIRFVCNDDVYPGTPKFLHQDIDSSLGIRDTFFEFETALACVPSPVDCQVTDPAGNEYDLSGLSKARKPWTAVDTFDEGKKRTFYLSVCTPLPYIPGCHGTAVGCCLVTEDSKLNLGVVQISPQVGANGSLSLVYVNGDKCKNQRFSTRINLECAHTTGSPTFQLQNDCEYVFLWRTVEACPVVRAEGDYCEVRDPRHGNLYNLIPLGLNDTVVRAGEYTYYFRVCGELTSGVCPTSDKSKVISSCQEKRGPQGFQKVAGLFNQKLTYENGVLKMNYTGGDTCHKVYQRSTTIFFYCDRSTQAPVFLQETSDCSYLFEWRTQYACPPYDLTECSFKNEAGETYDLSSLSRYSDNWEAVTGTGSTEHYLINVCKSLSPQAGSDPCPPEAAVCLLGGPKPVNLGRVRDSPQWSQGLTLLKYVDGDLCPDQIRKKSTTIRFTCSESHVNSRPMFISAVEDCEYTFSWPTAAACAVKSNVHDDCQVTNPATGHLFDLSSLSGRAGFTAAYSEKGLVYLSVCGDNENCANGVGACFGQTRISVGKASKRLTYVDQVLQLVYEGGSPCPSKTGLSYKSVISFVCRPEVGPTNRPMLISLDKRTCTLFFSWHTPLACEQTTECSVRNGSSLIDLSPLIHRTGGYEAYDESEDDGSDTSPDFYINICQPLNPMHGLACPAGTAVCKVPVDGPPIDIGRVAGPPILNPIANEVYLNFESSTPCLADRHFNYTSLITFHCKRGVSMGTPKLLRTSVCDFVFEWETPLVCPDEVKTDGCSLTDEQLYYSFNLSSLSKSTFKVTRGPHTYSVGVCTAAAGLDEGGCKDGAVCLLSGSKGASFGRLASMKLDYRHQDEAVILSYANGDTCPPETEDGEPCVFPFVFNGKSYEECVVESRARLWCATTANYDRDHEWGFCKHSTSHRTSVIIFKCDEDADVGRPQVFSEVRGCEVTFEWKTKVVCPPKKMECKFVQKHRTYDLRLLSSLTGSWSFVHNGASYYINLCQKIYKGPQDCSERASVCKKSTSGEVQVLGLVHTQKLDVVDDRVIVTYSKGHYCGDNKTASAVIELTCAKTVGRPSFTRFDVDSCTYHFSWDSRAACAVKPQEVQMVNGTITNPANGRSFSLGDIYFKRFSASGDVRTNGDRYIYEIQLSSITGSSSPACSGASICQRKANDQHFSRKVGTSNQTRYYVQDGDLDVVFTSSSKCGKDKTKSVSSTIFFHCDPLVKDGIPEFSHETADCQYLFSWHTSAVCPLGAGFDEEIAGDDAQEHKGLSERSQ

Sequence of Dom1-3His (extracytoplasmic domains 1-3 of the bovine CI-MPR, residues 1-432, C-terminal His6) (bovine) (P08169 45-476): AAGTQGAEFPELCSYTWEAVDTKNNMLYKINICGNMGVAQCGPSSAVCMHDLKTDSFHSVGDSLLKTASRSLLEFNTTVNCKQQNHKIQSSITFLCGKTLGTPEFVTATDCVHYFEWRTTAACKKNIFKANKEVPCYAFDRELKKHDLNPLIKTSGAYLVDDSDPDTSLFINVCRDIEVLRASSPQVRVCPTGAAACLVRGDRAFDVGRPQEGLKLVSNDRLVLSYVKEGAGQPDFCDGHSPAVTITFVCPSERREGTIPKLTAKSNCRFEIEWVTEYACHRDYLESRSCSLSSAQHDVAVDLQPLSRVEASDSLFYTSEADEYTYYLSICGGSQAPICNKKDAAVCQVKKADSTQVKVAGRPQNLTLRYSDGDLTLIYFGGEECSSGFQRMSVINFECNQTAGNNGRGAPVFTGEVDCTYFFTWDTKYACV
Sequence of Dom1His (domain 1 of the bovine CI-MPR, residues 1-123, C-terminal His6) (bovine) (P08169 45-167): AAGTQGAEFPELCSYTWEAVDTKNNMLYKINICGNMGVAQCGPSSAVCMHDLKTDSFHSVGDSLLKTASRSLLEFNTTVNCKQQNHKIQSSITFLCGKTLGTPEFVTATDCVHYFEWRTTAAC
Sequence of plasminogen (Homo sapiens) (P00747 20-810): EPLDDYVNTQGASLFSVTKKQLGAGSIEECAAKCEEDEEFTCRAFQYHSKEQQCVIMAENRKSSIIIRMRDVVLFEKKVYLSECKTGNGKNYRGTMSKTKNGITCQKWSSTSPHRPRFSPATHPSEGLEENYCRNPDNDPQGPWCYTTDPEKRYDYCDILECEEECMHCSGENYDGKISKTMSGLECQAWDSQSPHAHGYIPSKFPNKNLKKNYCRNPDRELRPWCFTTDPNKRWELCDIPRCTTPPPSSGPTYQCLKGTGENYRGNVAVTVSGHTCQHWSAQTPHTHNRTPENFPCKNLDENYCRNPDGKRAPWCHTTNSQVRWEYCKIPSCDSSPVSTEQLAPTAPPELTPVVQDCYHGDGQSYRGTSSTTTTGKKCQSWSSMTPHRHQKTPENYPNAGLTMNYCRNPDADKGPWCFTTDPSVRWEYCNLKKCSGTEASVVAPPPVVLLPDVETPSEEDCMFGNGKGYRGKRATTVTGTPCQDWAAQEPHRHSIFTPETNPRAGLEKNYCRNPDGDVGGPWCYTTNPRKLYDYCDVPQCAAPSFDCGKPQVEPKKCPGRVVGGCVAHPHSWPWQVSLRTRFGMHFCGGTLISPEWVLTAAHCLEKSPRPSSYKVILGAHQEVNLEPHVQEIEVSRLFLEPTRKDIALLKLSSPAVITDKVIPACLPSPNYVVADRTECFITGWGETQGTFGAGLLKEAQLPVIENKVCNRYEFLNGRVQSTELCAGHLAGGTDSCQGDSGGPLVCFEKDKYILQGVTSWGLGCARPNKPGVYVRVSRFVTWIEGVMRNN
Sequence of Dom1-3HisK98A (bovine) (P08169 45-476 K142A): as the sequence (P08169 45-476) above, with K98A counted along it
Sequence of Dom1-3HisK125A (bovine) (P08169 45-476 K169A): as the sequence (P08169 45-476) above, with K125A counted along it
Sequence of Dom1-3HisK82A (bovine) (P08169 45-476 K126A): as the sequence (P08169 45-476) above, with K82A counted along it
Sequence of Dom1-3HisR118A (bovine) (P08169 45-476 R162A): as the sequence (P08169 45-476) above, with R118A counted along it
Sequence of Dom1-3HisK132A (bovine) (P08169 45-476 K176A): as the sequence (P08169 45-476) above, with K132A counted along it
Sequence of Dom1-2His (domains 1-2 of the bovine CI-MPR, residues 1-281, C-terminal His6) (bovine) (P08169 45-325): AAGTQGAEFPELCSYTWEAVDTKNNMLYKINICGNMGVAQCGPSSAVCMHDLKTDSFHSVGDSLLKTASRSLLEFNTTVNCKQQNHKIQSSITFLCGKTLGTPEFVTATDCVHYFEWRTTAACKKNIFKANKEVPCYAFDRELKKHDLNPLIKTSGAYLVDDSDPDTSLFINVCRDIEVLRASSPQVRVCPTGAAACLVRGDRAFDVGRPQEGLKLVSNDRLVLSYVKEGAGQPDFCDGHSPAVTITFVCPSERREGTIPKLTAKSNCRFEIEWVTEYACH
Sequence of Dom1-3HisK215A (bovine) (P08169 45-476 K259A): as the sequence (P08169 45-476) above, with K215A counted along it
Sequence of Dom1-3HisK53A (bovine) (P08169 45-476 K97A): as the sequence (P08169 45-476) above, with K53A counted along it
Sequence of Dom1-3HisK23A (bovine) (P08169 45-476 K67A): as the sequence (P08169 45-476) above, with K23A counted along it

Kd [2]	Kd2 (two-site model) [3]	Kd [4]	Kd (Dom1-3HisK125A (bovine))	Kd (Dom1-3HisK132A (bovine))	Kd (Dom1-3HisK215A (bovine))	Kd (Dom1-3HisK23A (bovine))	Kd (Dom1-3HisK53A (bovine))	Kd (Dom1-3HisK82A (bovine))	Kd (Dom1-3HisK98A (bovine))	Kd (Dom1-3HisR118A (bovine))	Kd1 (two-site model) [5]	Kd2 (two-site model) [5]	Kd2 (two-site model) [6]	Substance	Kd [1]
–	–	–	–	–	–	–	–	–	–	–	–	–	–	CI-MPR (from UniProt P11717)	270 nM
131 nM	170 nM	271 nM	> 2000 nM	64 nM	10 nM	33 nM	> 2000 nM	69 nM	24 nM	21 nM	> 2 µM	> 2 µM	290 nM	bovine Glu-plasminogen (natural protein)	–
–	–	170 nM	–	–	–	–	–	–	–	–	–	–	–	human angiostatin K1-4 (domain or fragment)	–
